In patent US20240279357A1 (THERINI BIO, published 2024):
Numbering of substitutions follows the chain as printed. One block for each binder: values may come before it.

Assays:
[1] = target: T1, P2 peptide comprising SEQ ID NO: 31 (human fibrin γ377-395) (human); assay: ELISA on coated P2 peptide
T1 construct: Bought (CPC Scientific 920712); also called human P2 peptide
T1 peptide: YSMKKTTMKIIPFNRLTIG
Experimental: The humanized antibodies affinity for fibrinogen, fibrin and P2 peptide were assessed by Enzyme-linked immunosorbent assays (ELISA)s (FIGS. 7-16). ELISAs for fibrinogen binding were performed using plasminogen-depleted human Fibrinogen (EMD/Calbiochem). […] IgG1-depleted Fibrinogen (FGN) in 20 mM HEPES/Saline buffer was added to each well of half of a 96-well Nunc Maxisorp™ ELISA plate. The ELISAs for fibrin binding were prepared by adding 50 mL of 20 mM HEPES/Saline buffer containing 14 mM CaCl₂, and 2 units thrombin to each well of the second half of the Nunc Maxisorp™ ELISA plate. 50 mL of 20 mg fibrinogen in 20 mM HEPES/Saline buffer were then added to a total volume of 100 mL. Plates were placed in a 37° C. incubator for 1 hour to allow fibrinogen to clot into fibrin and subsequently placed overnight into a plate dryer at 37° C. overnight. The ELISAs for P2 peptide were prepared by addition of […] of 30 mM P2 peptide in 20 mM HEPES/Saline buffer to each well of a 96-well Nunc Maxisorp™ ELISA plate. Plates were transferred to the plate dryer and dried overnight at 37° C. All ELISAs were preformed using Nunc MaxiSorp 96-well ELISA plates. Blocking was performed using 100 mL 5% BSA in DPBS are incubated at RT for 1 hour. Plates were washed 5× in DPBS containing 0.05% Tween-20 (EL406 was used for the addition of wash buffer only). 50 mL of primary antibodies was diluted in 0.5% BSA in DPBS, and the primary antibodies were added to the plates and incubated for 2 hours at 37° C. Plates were washed 5× in DPBS/Tween. 100 mL secondary antibodies were diluted in 0.5% BSA in DPBS. The secondary antibodies were then added to the plates and incubated for 1 hour at RT. Afterwards, plates were washed 5× in DPBS/Tween. 100 mL of TMB/E substrate solution was added, and the reaction was stopped after 5 minutes with 1N HCl.

[2] = target: T1, P2 peptide comprising SEQ ID NO: 31 …; assay: SPR (Biacore) single cycle, steady state affinity; IgG from HEK supernatant captured, γ377-395 peptide analyte
[3] = target: T1, P2 peptide comprising SEQ ID NO: 31 …; assay: SPR (Biacore) single cycle, steady state fit; IgG from HEK supernatant captured, P2 peptide analyte
Experimental: FIG. 18 illustrates the procedure used for the single cycle kinetics analysis. The Biacore T200 […] instrument was used for single cycle kinetics analysis with the control software v2.0.1, and evaluation software V3.0. The anti-human capture chip was used with a running buffer consisting of HBS-P+ buffer (pH 7.4) containing 0.1% BSA at 25° C. a flow rate of 30 μl/min. Neat HEK supernatants were used as ligand and loaded to ˜1674 RU at 10 μl/min. P2 peptide comprising SEQ ID NO: 31 (CPC Scientific 920712, Lot #CS-02-00350) was the analyte for the analysis. […] Regeneration was performed with MgCl₂. Antibodies were diluted in running buffer to a final concentration of 20 μg/ml, based on concentrations assessed by Octet titre. At the start of each cycle, antibodies were loaded onto Fc2, Fc3 and Fc4 of the anti-human capture chip (GE Healthcare, Little Chalfont, UK). IgGs were captured at a flow rate of 10 μl/min to give an immobilization level (RL) of ˜ 1674 RU, the theoretical value to obtain an RMax of ˜50 RU. The surface was then allowed to stabilize. Single cycle kinetic data was obtained with P2 peptide as the analyte at a flow rate of 30 μl/min to minimize any potential mass transport limitations. […] The signal from the reference channel Fc1 (no antibody) was subtracted from that of Fc2, Fc3 and Fc4 to correct for differences in non-specific binding to a reference surface. […] The association phase for the five injections of increasing concentrations of P2 peptide was monitored for 20 seconds each time and a single dissociation phase was measured for 25 seconds following the last injection analyte. Regeneration of the anti-human capture surface was conducted using one injection of 3.8 M magnesium chloride.

[4] = target: T1, P2 peptide comprising SEQ ID NO: 31 …; assay: SPR (Biacore) multicycle, steady state fit; purified IgG captured, P2 peptide analyte
Experimental: Multicycle kinetics analysis of the variants were also performed to determine antibody affinity. […] At the start of each cycle, antibodies were loaded onto Fc2, Fc3 and Fc4 of the anti-human capture chip (GE Healthcare, Little Chalfont, UK). IgGs were captured at a flow rate of 10 μl/min to give an immobilization level (RL) of ˜1674 RU, the theoretical value to obtain a RMax of ˜50 RU. The surface was then allowed to stabilize. Kinetic data was obtained with P2 peptide as analyte using a flow rate of […] to minimize any potential mass transfer effects. Multiple repeats of a blank and a repeat of three concentrations of the analyte were programmed into the kinetic run in order to check the stability of both the surface and analyte over the kinetic cycles. […] The association phase of the peptide was monitored for 20 seconds and the dissociation phase was monitored for 25 seconds. Regeneration of the anti-human capture surface was conducted using one injection of 3.8 M magnesium chloride. The signal from the reference channel Fc1 was subtracted from that of Fc2, Fc3 and Fc4 to correct for differences in non-specific binding to a reference surface, and the data was then analyzed using steady state analysis due to the low affinity interaction to P2 peptide.

- EC50 [1]: ~0.0781 µM
- Kd [2]: 79 µM
- Relative KD [2]: 1 fold against VH5/VK2
- Kd [3]: 130 µM
- Relative KD [3]: 1.47 fold against VH0/VK0
- Kd [4]: 122 µM
- Relative KD [4]: 1.88 fold against VH0/VK0
B1: humanized VH5/Vκ2 antibody (antibody, IgG1, V domains shown)
VH: QVQLVQSGAEVKKPGSSVKVSCKASGYTFTSYWIHWVRQAPGQGLEWIGLIDPSDSYTNYNQKFRGRVTITRDTSTSTAYMELSSLRSEDTAVYYCASSDPTGCWGQGTTVTVSS
VL: DIVMTQAAFSNPVTPGTPASISCRSSKSLLHSSGITYLSWYLQKPGQSPQLLIYQMSNLASGVPDRFSSSGSGTDFTLKISRVEAEDVGVYYCAQNLELPLTFGQGTKLEIK
notes: IgG1; also called VH5/VK2; VH5Vk2

- EC50 [1]: ~0.0851 µM
- Kd [2]: 47 µM
- Relative KD [2]: 1 fold against VH4/VK2
- Kd [3]: 84.5 µM
- Relative KD [3]: 0.8 fold against VH0/VK0
- Kd [4]: 79.2 µM
- Relative KD [4]: 1.22 fold against VH0/VK0
B2: humanized VH4/Vκ2 antibody (antibody, IgG1, V domains shown)
VH: B1 VH with R72V
VL: B1 VL
notes: IgG1; also called VH4/VK2; VH4Vk2

- EC50 [1]: ~0.0813 µM
- Kd [3]: 105 µM
- Relative KD [3]: 1.18 fold against VH0/VK0
- Kd [4]: 86.2 µM
- Relative KD [4]: 1.33 fold against VH0/VK0
B3: humanized VH4/Vκ1 antibody (antibody, IgG1, V domains shown)
VH: B1 VH with R72V
VL: B1 VL with V13I, K79R
notes: Expressed as IgG1; also called VH4/VK1; VH4Vk1

- EC50 [1]: ~0.11 µM
- Kd [3]: 124 µM
- Relative KD [3]: 1.4 fold against VH0/VK0
- Kd [4]: 132 µM
- Relative KD [4]: 2.04 fold against VH0/VK0
B4: humanized VH6/Vκ2 antibody (antibody, IgG1, V domains shown)
VH: B1 VH with R65Q
VL: B1 VL
notes: Expressed as IgG1; also called VH6/VK2; VH6Vk2
